The record followed here is paper PMC8260561 (Cell Reports, 2021).

The target of the assay is S1-mFc (SARS-CoV-2 S1 subunit, fusion protein with murine Fc part) (SARS-CoV-2 Wuhan-Hu-1 (MN908947), UniProt P0DTC2). The assay can be described thus: ELISA. In general terms: An ELISA detects its analyte on a solid surface through an enzyme-linked reagent.

Broadly, the EC50 is the concentration giving half of the maximal effect.

B1: STE90-C11 IgG (human IgG1 with silenced Fc) (antibody, V domains shown)
VH: QVQLVESGGGLVQPGGSLRLSCAASGLTVSSNYMSWVRQAPGKGLEWVSVIYSGGSTYYADSVKGRFTISRDDSKNTLYLQMNSLRAEDTAVYYCARDVADAFDIWGQGTMVTVSS
VL: DIVMTQSPSFLSASVGDRVTITCRASQGISSYLAWYQQKPGKAPKLLIYAASTLQSGVPSRFSGSGSGTEFTLTISSLQPEDFATYYCQQLNSYPPFTFGPGTKVDIK
The molecule B1 gave an EC50 of 0.2 nM.
